Results as given in patent EP4772193A1 (Teijin Pharma Limited, dated 2026).

T1: recombinant human soluble gpNMB (recombinant human gpNMB-FLAG-His) (human, UniProt Q14956 23-498)
T1 sequence: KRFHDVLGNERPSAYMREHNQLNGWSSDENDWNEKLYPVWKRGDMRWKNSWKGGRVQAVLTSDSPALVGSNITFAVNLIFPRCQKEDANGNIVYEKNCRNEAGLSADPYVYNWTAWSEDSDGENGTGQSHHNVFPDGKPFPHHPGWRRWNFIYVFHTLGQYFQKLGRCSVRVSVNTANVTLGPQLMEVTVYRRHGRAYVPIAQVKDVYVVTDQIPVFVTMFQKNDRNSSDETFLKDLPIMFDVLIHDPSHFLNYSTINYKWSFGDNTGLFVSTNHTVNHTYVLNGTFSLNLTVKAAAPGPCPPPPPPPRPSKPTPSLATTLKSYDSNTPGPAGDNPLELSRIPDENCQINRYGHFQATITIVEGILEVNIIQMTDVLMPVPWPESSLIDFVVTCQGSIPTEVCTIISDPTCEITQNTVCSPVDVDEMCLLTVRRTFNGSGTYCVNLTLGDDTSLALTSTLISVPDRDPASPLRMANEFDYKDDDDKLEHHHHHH


Tests used:
[1] = biological target: T1, recombinant human soluble gpNMB …; experiment: antigen ELISA
[2] = biological target: T1, recombinant human soluble gpNMB …; experiment: antigen ELISA, vs hGPN18-2_H2L3

Binder | EC50 [1] [nM] | Relative binding activity [2]
hGPN18-2_H2L3 VL R59A (antibody, V domains shown) VH: QVQLVQSGPGLVQPTQTLTLTCSFSGFSLSTSVMGVGWIRQPSGKGLEWLADIWWDDDKDYNPSLKSRLTISKDTSKNQVVLTMTNMDTVDTATYYCARTYYSNYEYYGMDYWGQGTLVTVSS VL: DIVMTQSPDSLAVSLGERATINCRSSQTIILSNGNTYLEWYQQKPGQPPKLLIYKVSNAFSGVPDRFSGSGSGTDFTLTISSLQAEDVAVYYCFQGSHVPFTFGSGTKLEIKR | 2.36 | 1.11
hGPN18-2_H2L3 VL S25A (antibody, V domains shown) VH: QVQLVQSGPGLVQPTQTLTLTCSFSGFSLSTSVMGVGWIRQPSGKGLEWLADIWWDDDKDYNPSLKSRLTISKDTSKNQVVLTMTNMDTVDTATYYCARTYYSNYEYYGMDYWGQGTLVTVSS VL: DIVMTQSPDSLAVSLGERATINCRASQTIILSNGNTYLEWYQQKPGQPPKLLIYKVSNRFSGVPDRFSGSGSGTDFTLTISSLQAEDVAVYYCFQGSHVPFTFGSGTKLEIKR | 3.76 | 1.01
hGPN18-2_H2L3 VL S26A (antibody, V domains shown) VH: QVQLVQSGPGLVQPTQTLTLTCSFSGFSLSTSVMGVGWIRQPSGKGLEWLADIWWDDDKDYNPSLKSRLTISKDTSKNQVVLTMTNMDTVDTATYYCARTYYSNYEYYGMDYWGQGTLVTVSS VL: DIVMTQSPDSLAVSLGERATINCRSAQTIILSNGNTYLEWYQQKPGQPPKLLIYKVSNRFSGVPDRFSGSGSGTDFTLTISSLQAEDVAVYYCFQGSHVPFTFGSGTKLEIKR | 3.14 | 1.03
hGPN18-2_H2L3 VL S61A (antibody, V domains shown) VH: QVQLVQSGPGLVQPTQTLTLTCSFSGFSLSTSVMGVGWIRQPSGKGLEWLADIWWDDDKDYNPSLKSRLTISKDTSKNQVVLTMTNMDTVDTATYYCARTYYSNYEYYGMDYWGQGTLVTVSS VL: DIVMTQSPDSLAVSLGERATINCRSSQTIILSNGNTYLEWYQQKPGQPPKLLIYKVSNRFAGVPDRFSGSGSGTDFTLTISSLQAEDVAVYYCFQGSHVPFTFGSGTKLEIKR | 3.63 | 0.94
hGPN18-2_H2L3 VL T28A (antibody, V domains shown) VH: QVQLVQSGPGLVQPTQTLTLTCSFSGFSLSTSVMGVGWIRQPSGKGLEWLADIWWDDDKDYNPSLKSRLTISKDTSKNQVVLTMTNMDTVDTATYYCARTYYSNYEYYGMDYWGQGTLVTVSS VL: DIVMTQSPDSLAVSLGERATINCRSSQAIILSNGNTYLEWYQQKPGQPPKLLIYKVSNRFSGVPDRFSGSGSGTDFTLTISSLQAEDVAVYYCFQGSHVPFTFGSGTKLEIKR | 2.91 | 1.05
hGPN18-2_H2L3 VL V56A (antibody, V domains shown) VH: QVQLVQSGPGLVQPTQTLTLTCSFSGFSLSTSVMGVGWIRQPSGKGLEWLADIWWDDDKDYNPSLKSRLTISKDTSKNQVVLTMTNMDTVDTATYYCARTYYSNYEYYGMDYWGQGTLVTVSS VL: DIVMTQSPDSLAVSLGERATINCRSSQTIILSNGNTYLEWYQQKPGQPPKLLIYKASNRFSGVPDRFSGSGSGTDFTLTISSLQAEDVAVYYCFQGSHVPFTFGSGTKLEIKR | 2.99 | 1.07
hGPN18-2_H2L3 VL V99A (antibody, V domains shown) VH: QVQLVQSGPGLVQPTQTLTLTCSFSGFSLSTSVMGVGWIRQPSGKGLEWLADIWWDDDKDYNPSLKSRLTISKDTSKNQVVLTMTNMDTVDTATYYCARTYYSNYEYYGMDYWGQGTLVTVSS VL: DIVMTQSPDSLAVSLGERATINCRSSQTIILSNGNTYLEWYQQKPGQPPKLLIYKVSNRFSGVPDRFSGSGSGTDFTLTISSLQAEDVAVYYCFQGSHAPFTFGSGTKLEIKR | 9.93 | 0.81
hGPN18-2_H2L3 VL Y37A (antibody, V domains shown) VH: QVQLVQSGPGLVQPTQTLTLTCSFSGFSLSTSVMGVGWIRQPSGKGLEWLADIWWDDDKDYNPSLKSRLTISKDTSKNQVVLTMTNMDTVDTATYYCARTYYSNYEYYGMDYWGQGTLVTVSS VL: DIVMTQSPDSLAVSLGERATINCRSSQTIILSNGNTALEWYQQKPGQPPKLLIYKVSNRFSGVPDRFSGSGSGTDFTLTISSLQAEDVAVYYCFQGSHVPFTFGSGTKLEIKR | 27.1 | 0.37

Other lines, results leading:

EC50 [1] [nM] | Relative binding activity [2] | Binder
4 | 1.04 | hGPN18-2_H2L3 VL Q27A (antibody, V domains shown) VH: QVQLVQSGPGLVQPTQTLTLTCSFSGFSLSTSVMGVGWIRQPSGKGLEWLADIWWDDDKDYNPSLKSRLTISKDTSKNQVVLTMTNMDTVDTATYYCARTYYSNYEYYGMDYWGQGTLVTVSS VL: DIVMTQSPDSLAVSLGERATINCRSSATIILSNGNTYLEWYQQKPGQPPKLLIYKVSNRFSGVPDRFSGSGSGTDFTLTISSLQAEDVAVYYCFQGSHVPFTFGSGTKLEIKR
5.49 | 0.79 | hGPN18-2_H2L3 VL Q95A (antibody, V domains shown) VH: QVQLVQSGPGLVQPTQTLTLTCSFSGFSLSTSVMGVGWIRQPSGKGLEWLADIWWDDDKDYNPSLKSRLTISKDTSKNQVVLTMTNMDTVDTATYYCARTYYSNYEYYGMDYWGQGTLVTVSS VL: DIVMTQSPDSLAVSLGERATINCRSSQTIILSNGNTYLEWYQQKPGQPPKLLIYKVSNRFSGVPDRFSGSGSGTDFTLTISSLQAEDVAVYYCFAGSHVPFTFGSGTKLEIKR
4.73 | 1.04 | hGPN18-2_H2L3 VL R24A (antibody, V domains shown) VH: QVQLVQSGPGLVQPTQTLTLTCSFSGFSLSTSVMGVGWIRQPSGKGLEWLADIWWDDDKDYNPSLKSRLTISKDTSKNQVVLTMTNMDTVDTATYYCARTYYSNYEYYGMDYWGQGTLVTVSS VL: DIVMTQSPDSLAVSLGERATINCASSQTIILSNGNTYLEWYQQKPGQPPKLLIYKVSNRFSGVPDRFSGSGSGTDFTLTISSLQAEDVAVYYCFQGSHVPFTFGSGTKLEIKR
8.67 | 0.92 | hGPN18-2_H2L3 VL S32A (antibody, V domains shown) VH: QVQLVQSGPGLVQPTQTLTLTCSFSGFSLSTSVMGVGWIRQPSGKGLEWLADIWWDDDKDYNPSLKSRLTISKDTSKNQVVLTMTNMDTVDTATYYCARTYYSNYEYYGMDYWGQGTLVTVSS VL: DIVMTQSPDSLAVSLGERATINCRSSQTIILANGNTYLEWYQQKPGQPPKLLIYKVSNRFSGVPDRFSGSGSGTDFTLTISSLQAEDVAVYYCFQGSHVPFTFGSGTKLEIKR
3.14 | 1.05 | hGPN18-2_H2L3 VL S57A (antibody, V domains shown) VH: QVQLVQSGPGLVQPTQTLTLTCSFSGFSLSTSVMGVGWIRQPSGKGLEWLADIWWDDDKDYNPSLKSRLTISKDTSKNQVVLTMTNMDTVDTATYYCARTYYSNYEYYGMDYWGQGTLVTVSS VL: DIVMTQSPDSLAVSLGERATINCRSSQTIILSNGNTYLEWYQQKPGQPPKLLIYKVANRFSGVPDRFSGSGSGTDFTLTISSLQAEDVAVYYCFQGSHVPFTFGSGTKLEIKR
3.29 | 1.04 | hGPN18-2_H2L3 VL S97A (antibody, V domains shown) VH: QVQLVQSGPGLVQPTQTLTLTCSFSGFSLSTSVMGVGWIRQPSGKGLEWLADIWWDDDKDYNPSLKSRLTISKDTSKNQVVLTMTNMDTVDTATYYCARTYYSNYEYYGMDYWGQGTLVTVSS VL: DIVMTQSPDSLAVSLGERATINCRSSQTIILSNGNTYLEWYQQKPGQPPKLLIYKVSNRFSGVPDRFSGSGSGTDFTLTISSLQAEDVAVYYCFQGAHVPFTFGSGTKLEIKR
4.74 | 1.06 | hGPN18-2_H2L3 VL T36A (antibody, V domains shown) VH: QVQLVQSGPGLVQPTQTLTLTCSFSGFSLSTSVMGVGWIRQPSGKGLEWLADIWWDDDKDYNPSLKSRLTISKDTSKNQVVLTMTNMDTVDTATYYCARTYYSNYEYYGMDYWGQGTLVTVSS VL: DIVMTQSPDSLAVSLGERATINCRSSQTIILSNGNAYLEWYQQKPGQPPKLLIYKVSNRFSGVPDRFSGSGSGTDFTLTISSLQAEDVAVYYCFQGSHVPFTFGSGTKLEIKR
4.73 | 0.81 | hGPN18-2_H2L3 VL T102A (antibody, V domains shown) VH: QVQLVQSGPGLVQPTQTLTLTCSFSGFSLSTSVMGVGWIRQPSGKGLEWLADIWWDDDKDYNPSLKSRLTISKDTSKNQVVLTMTNMDTVDTATYYCARTYYSNYEYYGMDYWGQGTLVTVSS VL: DIVMTQSPDSLAVSLGERATINCRSSQTIILSNGNTYLEWYQQKPGQPPKLLIYKVSNRFSGVPDRFSGSGSGTDFTLTISSLQAEDVAVYYCFQGSHVPFAFGSGTKLEIKR
